# Measurements: the domain aggregation screens of Martell et al. (2025)
# Experiment: soluble fraction after stress (log2 fold change); higher = more stays soluble; pooled small domains, quantitative proteomics
# Details: stress: 75 degC
# 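Also: 20 min heating vs room temperature control held 20 min.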
row,Sequence,soluble fraction (log2)
1,HMSELIDSLTEAVRSAPDAVPLRLHLAELLLADGQRDRAFAQLGQVLAKDPQNARALEMLGVGS,-0.129
2,HMSELSEVIEKTFEELPEELKLIVKLREIDDLSYDEISNKIGIPIGTVRSRLHRAREILINIIKN,-2.5
3,HMSELSGSQLKAIREEKHIPLEQVASATRIRLSLLEALEMDEYAELGSRTQARGFLKLYADFLGVPFEA,-1.53
4,HMSEMDNMEWVREQYFQNMIYEIGEWVRDKKTGIVGEVVKRGTNYVTVVQEDFSLHKIWLEDLETTEK,-0.841
5,HMSEMLPFDEARRQFERDYLVQLLKLTSGNVSQAARLARRNRTDFYALLGRHQLEPASFKPE,-0.971
6,HMSEMVIPEDFLAALETNPQAKAFYATLNRQNQYAVYHRLQTAKRPETRAKRIADFVAQLAAGKRF,-1.03
7,HMSEPHPPFQVVAQFPYKSEYEDDLNFEKDQIITVTSIEDDEWYYGDFKNKGGELVEGIFPKSFVTVK,-0.31
8,HMSEPQYKVLFSNLDDRDGGAIVTALGAMNVPYKYNDTGTALLVPADRVYDARLQLASQGLPRG,0.262
9,HMSEPTVVAINETLTSERLDRYLTTQLPHISRGGIQRLLRKGNILVDGKPAKPTQHPVAGQTVEITWPIPK,-0.607
10,HMSEQMQVGELVFQLHRKAIKNLHINVLPPDGFVRVSAPQAMTETAIRTAVISRLPWIRRQQQAFAAQ,-3.48
11,HMSERVVEIDPSQLRPGLFIRLPSGWMNHPFLFNQFRINSAEQVEIIQKLGLKTVQYLPERSSTQALPRA,-1.95
12,HMSESEDFQNRWRPWRSLLDDETPVVREALVDQLKLFPEEGRLFLQQMSEEDDPISARHAFELIKSLGW,-0.363
13,HMSETAVTYNEDFEADGSLRPNEQAVLDAFTGVLKLTVSELEKKTGLRNVVPVVASLMAKGAVEVSEELK,-0.0304
14,HMSETEWGEIYRKVMAAGLIPARSVRERLLALPSIEPLLQAAEAAGSKGMLDETLLDSLLSKT,0.0662
15,HMSETLESYTTRLKQLEEIADSFQGVDKTFAIQAGREIRVMVVPEQISDDDMILLARDISNQIEENLDY,-0.234
16,HMSEVIYVAEDNVGQRIDVFLVNKLVDASRANIQKNIVDGVILVNNKNVKANYKLRLGDVVEIRTQ,-1.38
17,HMSEVPAAVLVTGGSINLREAPSTDATIIDVAQVGEKMTVLAEKNSWYQVSRGGRNVWVASWVVDPLT,-0.066
18,HMSEVTYQETLRLLRRAIDVLPQQSRQIILLGLSGKNNNEVAEMLGISVNTVKTLKKGAYKSLRNSL,-1.87
19,HMSEYITEGWLREKFGLGWGTEVHLPLDSRLTPAAHQLLEERKIVIKYIDAEGRVFNPDKSGEEAPVQ,-0.41
20,HMSEYVIVTGEKVNLRVGPGMDYEIAGQVVKGDKLELLASEGDWSKVKTGSGSIYYISSSLVQKA,-0.157
21,HMSFDGFSDRLKSVLNSGKYTQKEAAEKINISEYSFTKYLNGRIPQTEILYKIARLYNKSMEWLLTGKDPI,-2.74
22,HMSFGWELYKGKEGIADTDLHPSGWIRIADKRVFAVSEGEFIEKGLEIIVLSVDGNRIVVRELK,-1.93
23,HMSFGWETLEGKEGVTDTDLHPSGWVKVGDEKIFVVSQGEFLGKGTDIVVVSVDGNRVVVKELI,-0.998
24,HMSFKQARFMMDAANGKALAWLYSHAEVLDRKDQGENIEIHVMISPADLSRFVNAFGYQPVQS,-1.07
25,HMSFMFEISVIRSQYNMQDPESKTGFYNAIAKKLLEFPEKLERDNYTEAVAREYMIPETDLKNLVNSMGG,-3.12
26,HMSFNGTILSNYQKTYPNLAKFTYDQANDALVYEGNFIKLNGYGLSRIDPVFFNMNPDEIFIFIKNG,-3.85

row,Sequence,soluble fraction (log2)
1,HMSFNTNENKNLLWELMNKHNLFKDIDNQHYQEVQKLFEEEIVFISNNNKSLDLVEQNKKFLSSIITKLNK,-1.84
2,HMSFPQVELNTNKGRIVLELNSEKAPKTVANFLEYVRDGFYDGVIFHRVIDGFMIQGGGFDENFKEKA,-0.6
3,HMSFSPYLVRVSITDLNIRKGPGTNYAKTGKFTGKGVFTIVEMQTGKGSDTGWGRLKSGAGWISLDYTEKI,-3.47
4,HMSFSQNIGKRIREERLRLNLTQEKLAEDVNLSMAYIGQVERGDRSLTLDNLIIVAKRLGVTIDYLLS,-4.13
5,HMSFTSQSVLIEIVRGTTQLTPLAAAVGANKREVVLAVHRLKQRGLVVSAGLGQYAATEAGRAFLTAGREV,-3.43
6,HMSFYSVVISQDGSMLVAENRNEIYSNEELLELASEVNEKTGTIGTIGSLMYYKADKGGYTLITFLDNS,-4.18
7,HMSGALDTVVGIRMLKLLSTPIEKSKAFQVGIINKDGKKLRDPTSGERQHYTFLNRFVFKVQYALMRS,-0.549
8,HMSGDYRPLYPNLPESEKSEAFNLLAGSALPARLDDRTGDIMVPADRYYEARMILANAGFAD,0.17
9,HMSGEMGIIVAKRLPIRSEPDELATRAFVLKAGTRVKIVKHLNGWLEIVHDGKAGYVQDLEVYVRVIG,-0.806
10,HMSGEPVKSTLPGNVFKILVAVGDSVKKGQRMFVLEAMKMEIDVNAPKDGLVTSIEVQQGQTVANGQILAK,-0.0981
11,HMSGIESIVIPLKGLDFDMISSTLTPQLKQAIKYDKQSDSIILVGTNAKVNIIAKQVNAMVEVYKLKT,-1.81
12,HMSGIGTTIKMLRENKNISQEELGNVLGVSDKTISSWEINRTEPKMGIVQLLADYFGVSTDYLIKG,-0.447
13,HMSGILINGELYKPGEQMSLKQRLSIQARIQMQGEDTVKPEMLKDFYNSGGPLSKEESSEYMKSQN,-0.515
14,HMSGIQNNFITRLKKVLAPTIGIAEEISDLLNISIDSAYRRIRGETDFTFEEIYIITRKHKISIDEIYG,-3.88
15,HMSGIVPAAPPLRPDLDIKWHTGDKVRHAKWGEGTIVSVKGEGEETELKIAFPGQGIRPFMQKYAPITR,0.218
16,HMSGLEDIKKKILEDAGIKKGSVKFVKVDKDYDDGIWKYEIDFVYDGKEYEYEIEVETGKILSRKTEKSD,0.00588
17,HMSGLVPAIGTKGEEGYIRESDIPGSNVKNPEEALAYMEWLKTQPSELLIPLYDEQGNVIGQFAVS,0.461
18,HMSGMEKLAIQEIEKEIKSFVKGDILIELTGKNRATAYVSEKNVGALIGKKGERINSIEKRLGVGIDVRPY,-0.23
19,HMSGMNSDHRVNGNIHTFLIQHDLGTKWSVFTEQLLKQVFRSFLPDKELNFQTTDSTVILKVSLGSDFNEH,-0.0399
20,HMSGPAEDLLAIEGMDKELAYELAARGIRTRDELADQSLDELEAVPGLDPVRAGQLIMAARAHLFENAGQ,0.0744
21,HMSGRSVSYSEFMSRVEAGQVSSVTLDGERVEVTGSDGSRYVTIAPSDATLTDKLVAKGVEVRADP,0.462
22,HMSGSKEQQIVILNNILERQLQAFGLQGNREFPMVTLKNIYNSLSKIIENAGLKNVENYFVNPEQGKQM,-0.0735
23,HMSGTFIGGELVKPGEPLTPMQRAAITMGLQMGNTYSPEIMEKYNNAGGSPSKEEFENYQKNKS,0.216
24,HMSHGFFELKTTQKEALIKLLDSHPNFTHTKTEADLTTAFLKLPMDAEQFNKLLFTNGIVLSHLVKRK,-0.581
25,HMSHGYVEMQAKDDQVLLAALKNHPWFEKVSIDEETGLTKAILTQPIEAEELNSMLFEKGIVLSHLVKRK,0.288
26,HMSHISLGQRYKIEGYLQINLKRTQIAKEIGLPKKTVNQEIKRNSNPQTGIYKAEEAHQLYLDRMQKKRK,-0.335

row,Sequence,soluble fraction (log2)
1,HMSHKYKLTVPETGEGTRVDKFLSSALTELSRTRLKSLIEEGQVTLGGVKLTNPSHRVKSGDELNIEIPVP,0.018
2,HMSHPNAPLTPEGRRRLAVLIVEDGWTIRRAAERFQVSPATASKWARRYRAGESLTDRSSRP,-1.85
3,HMSHSDMEEWTDAVRSRRKKLGLTQVQIARRLGVTSHHFSQIESGRTIPSASLQIEIDRLLKNWND,-1.73
4,HMSHSVLIDISQLRIGMYIQLDVGWMHHPFPVSSFRVASLEQIEALRTLNLAQVRYFPAKSDPV,-3.51
5,HMSIAEMSGARKSAILLLALDEDSAAEIFKYLSAGEVQEISMEMAKLNQVSHDDMKAVLEAFHKETEEFV,-0.821
6,HMSIAKIIGDRIRAYRNQKGWSQEYLAEKADVHHTYIGQLERGEKNATIESISKIAGALGVSLSRLFEN,-0.659
7,HMSIEHVPGYTTLSKREQEIVHALLTRKTPEELADDLSISINTLNKHISHIYHKLGIRGRMQLFDYA,-1.1
8,HMSIEIKTIDVKHADLFQLQDILRNLYPELNIVPDQRNNKLILQGKRELLVEAERLTLQLDTE,0.248
9,HMSIESPEEFNAKFPPGSEIYATNIQKNAIVQSPANAKGDVEILANSMRLTINFRFISKRDT,-1.6
10,HMSIGPQMAGRRVLSGDLIARLEAFEGTVVLGRGVAREDALLIATQAGHVRWEPASRRLWVDSTA,-2.38
11,HMSIHPRDKADLGTALSKWKKGALDDKQLELEVARVFMRTYGKKLEGQALNKAVAAWVAALTQSKK,-0.171
12,HMSINIDEEKKILGPNADQIIKGITTWGQGLVSKGIWSDADFEEFKIFAATGNGINALNKVRKYY,-0.338
13,HMSIQMPDLSITPVTDAKKKIESLQLQYKEVGEYNDSVIAGYVIRTEPASGSYLNEDEEVIIYVSKG,-0.776
14,HMSISEFNYTEFNGLVEKGQVSEVTISGREIEGRLTSGESFKTYSPETDNSALVGDLLKNNVKINGKP,0.0159
15,HMSITKDNLSIGTNIRISGFSDIGRIISIPNKGNQVQVQIGSAKMNIKINSIVEIIKEEKDFNKNISN,-1.48
16,HMSIYMNIYNEFKKYIIANVYKYDDKLPSVRSIALEYGINPNTVQRAFQLLEDEGYIKTISKKGVYVNYR,-0.745
17,HMSKAYLSVESNISGARVFVDGQKEGTTPLSDVLLSAGEHLILVKKQGYETYQKRVRFQKGRSMSLYVDLS,-0.0864
18,HMSKDQKKFFIEIVSIRGFGSQIGISILNKLSIPQIINAIKTQNKKEISSIPGIGQKMTERLILELNNKFK,-0.183
19,HMSKININTITESELKELPISTVKQKAIQDYLIDRGFISNIYDLLDIKEITSDDVSLLKKVVNVKLPY,-0.489
20,HMSKIVPVAYSQFLKDVKNGNVSQVEIRGNNIKGINNNGSSFSTYAPNDLSLIDKLEKSNVEIIVMPLE,-0.368
21,HMSKKLLVLQTSDDAKAKDVLSQNGYQLDDGDKLSIIETEQTKMADVIKLLSDNAIDIEDVQHVH,0.14
22,HMSKLQETEIPVALEVEKIPGLSNELKQKLLKIKPQTIGQASRISGITPAAISILMIYIKKNESISAVK,-1.9
23,HMSKLQKTKYAGVYFTEDTQTRVKTYVARIVLAGIIDTEVVVGHSNDQHRTNAAIAYQRRLELIQEAKN,-4
24,HMSKLSLREIVKKFEEQIIQLHKRGLNHSEISREIVTKNSIDLGDSHIDSLRRAISVHLQTP,-0.755
